In PMC3973293, “A tRNA splicing operon: Archease endows RtcB with dual GTP/ATP cofactor specificity and accelerates RNA ligation” (Nucleic Acids Research, 2014) one finds Km and RNA ligation product formed by 5 μM RtcB with Archease titrated in (activation levels off data, which are given here for 4 molecules.

Substrate in data set [1]: Nc1nc2c(ncn2[C@@H]2O[C@H](COP(=O)(O)OP(=O)(O)OP(=O)(O)O)[C@@H](O)[C@H]2O)c(=O)[nH]1
The experiment in a line: single-turnover RNA ligation, FAM-RNA gel assay. The following applies: apparent Km, RtcB 5 uM, MnCl2 0.25 mM, NaCl 300 mM, Bis-Tris pH 7.0, 70 °C, 10-nt RNA substrates 1.0 uM each, varied: cofactor. Type of data set: biochemical, Pyrococcus horikoshii.

Substrate in data set [2]: Nc1ncnc2c1ncn2[C@@H]1O[C@H](COP(=O)(O)OP(=O)(O)OP(=O)(O)O)[C@@H](O)[C@H]1O
The data set can be described thus: single-turnover RNA ligation, FAM-RNA gel assay. Conditions: apparent Km, Archease 800 nM, RtcB 5 uM, MnCl2 0.25 mM, NaCl 300 mM, Bis-Tris pH 7.0, 70 °C, 10-nt RNA substrates 1.0 uM each, varied: cofactor. It counts as biochemical, Pyrococcus horikoshii. The source says: single-turnover RNA ligation, FAM-RNA gel assay on RtcB·Archease | the ATP KM* value for K480A RtcB was nearly identical to the ATP KM* value

Substrate in data set [3]: Nc1nc2c(ncn2[C@H]2C[C@H](O)[C@@H](COP(=O)(O)OP(=O)(O)OP(=O)(O)O)O2)c(=O)[nH]1
The data set can be described thus: single-turnover RNA ligation, FAM-RNA gel assay. It counts as biochemical, Pyrococcus horikoshii. Conditions: apparent Km, Archease 100 nM, RtcB 5 uM, MnCl2 0.25 mM, NaCl 300 mM, Bis-Tris pH 7.0, 70 °C, 10-nt RNA substrates 1.0 uM each, varied: cofactor.

Substrate in data set [4]: Nc1ncnc2c1ncn2[C@@H]1O[C@H](COP(=O)(O)OP(=O)(O)OP(=O)(O)O)[C@@H](O)[C@H]1O
The experiment in a line: single-turnover RNA ligation, FAM-RNA gel assay. It counts as biochemical, Pyrococcus horikoshii. The following applies: apparent Km, Archease 800 nM, RtcB 5 uM, MnCl2 0.25 mM, NaCl 300 mM, Bis-Tris pH 7.0, 70 °C, 10-nt RNA substrates 1.0 uM each, varied: cofactor. The source holds these as a separate data set.

Substrate in data set [5]: O=P(O)(O)OP(=O)(O)OP(=O)(O)OC[C@H]1O[C@@H](n2cnc3c(O)ncnc32)[C@H](O)[C@@H]1O
The experiment in a line: single-turnover RNA ligation, FAM-RNA gel assay. The following applies: apparent Km, Archease 100 nM, RtcB 5 uM, MnCl2 0.25 mM, NaCl 300 mM, Bis-Tris pH 7.0, 70 °C, 10-nt RNA substrates 1.0 uM each, varied: cofactor. Type of data set: biochemical, Pyrococcus horikoshii.

Data set [6] deals with T1, Native Pyrococcus horikoshii RtcB (Pyrococcus horikoshii) (UniProt O59245).
T1 sequence: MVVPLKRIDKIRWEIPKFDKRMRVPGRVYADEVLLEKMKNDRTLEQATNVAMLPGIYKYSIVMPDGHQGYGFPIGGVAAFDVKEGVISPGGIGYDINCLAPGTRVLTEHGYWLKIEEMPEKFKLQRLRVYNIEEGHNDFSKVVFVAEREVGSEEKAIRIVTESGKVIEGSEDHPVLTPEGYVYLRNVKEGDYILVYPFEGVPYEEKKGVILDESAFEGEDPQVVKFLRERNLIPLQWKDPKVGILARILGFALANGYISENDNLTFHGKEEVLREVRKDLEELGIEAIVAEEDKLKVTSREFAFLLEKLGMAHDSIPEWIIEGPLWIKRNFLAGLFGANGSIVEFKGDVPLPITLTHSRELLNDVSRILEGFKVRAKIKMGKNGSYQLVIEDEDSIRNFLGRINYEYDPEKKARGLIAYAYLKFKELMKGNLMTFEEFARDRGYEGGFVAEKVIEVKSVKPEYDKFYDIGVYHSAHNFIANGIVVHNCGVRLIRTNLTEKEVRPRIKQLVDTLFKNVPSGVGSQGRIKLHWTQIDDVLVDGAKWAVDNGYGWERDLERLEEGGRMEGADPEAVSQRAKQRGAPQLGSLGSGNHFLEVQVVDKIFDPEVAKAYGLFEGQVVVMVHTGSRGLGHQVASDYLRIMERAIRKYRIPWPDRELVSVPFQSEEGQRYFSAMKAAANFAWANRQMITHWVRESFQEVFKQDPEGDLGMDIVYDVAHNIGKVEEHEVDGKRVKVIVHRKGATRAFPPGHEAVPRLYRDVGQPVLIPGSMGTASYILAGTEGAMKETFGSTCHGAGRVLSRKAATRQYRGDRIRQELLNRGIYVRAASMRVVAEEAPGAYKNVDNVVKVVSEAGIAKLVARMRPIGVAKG

B1: P. horikoshii RtcB (Pyrococcus horikoshii OT3) (protein)
chain 1: MVVPLKRIDKIRWEIPKFDKRMRVPGRVYADEVLLEKMKNDRTLEQATNVAMLPGIYKYSIVMPDGHQGYGFPIGGVAAFDVKEGVISPGGIGYDIN
chain 2: CGVRLIRTNLTEKEVRPRIKQLVDTLFKNVPSGVGSQGRIKLHWTQIDDVLVDGAKWAVDNGYGWERDLERLEEGGRMEGADPEAVSQRAKQRGAPQLGSLGSGNHFLEVQVVDKIFDPEVAKAYGLFEGQVVVMVHTGSRGLGHQVASDYLRIMERAIRKYRIPWPDRELVSVPFQSEEGQRYFSAMKAAANFAWANRQMITHWVRESFQEVFKQDPEGDLGMDIVYDVAHNIGKVEEHEVDGKRVKVIVHRKGATRAFPPGHEAVPRLYRDVGQPVLIPGSMGTASYILAGTEGAMKETFGSTCHGAGRVLSRKAATRQYRGDRIRQELLNRGIYVRAASMRVVAEEAPGAYKNVDNVVKVVSEAGIAKLVARMRPIGVAKG
notes: intein-free mature ligase
With B1, in data set [1], the Km amounted to 2.4 ± 0.2 µM.

B2: RtcB·Archease (Pyrococcus horikoshii OT3; K870A) (protein)
chain 1: MVVPLKRIDKIRWEIPKFDKRMRVPGRVYADEVLLEKMKNDRTLEQATNVAMLPGIYKYSIVMPDGHQGYGFPIGGVAAFDVKEGVISPGGIGYDIN
chain 2: CGVRLIRTNLTEKEVRPRIKQLVDTLFKNVPSGVGSQGRIKLHWTQIDDVLVDGAKWAVDNGYGWERDLERLEEGGRMEGADPEAVSQRAKQRGAPQLGSLGSGNHFLEVQVVDKIFDPEVAKAYGLFEGQVVVMVHTGSRGLGHQVASDYLRIMERAIRKYRIPWPDRELVSVPFQSEEGQRYFSAMKAAANFAWANRQMITHWVRESFQEVFKQDPEGDLGMDIVYDVAHNIGKVEEHEVDGKRVKVIVHRKGATRAFPPGHEAVPRLYRDVGQPVLIPGSMGTASYILAGTEGAMKETFGSTCHGAGRVLSRKAATRQYRGDRIRQELLNRGIYVRAASMRVVAEEAPGAYKNVDNVVKVVSEAGIAKLVARMRPIGVAAG
notes: Archease untagged as described, codon-optimised, Leu inserted after ATG, E. coli BL21, 16 kDa, mostly monomer; with Protein archease
In the case of B2, the Km in data set [2] is 3.0 ± 1.0 µM.

B3: RtcB·Archease (Pyrococcus horikoshii OT3) (protein)
chain 1: MVVPLKRIDKIRWEIPKFDKRMRVPGRVYADEVLLEKMKNDRTLEQATNVAMLPGIYKYSIVMPDGHQGYGFPIGGVAAFDVKEGVISPGGIGYDIN
chain 2: CGVRLIRTNLTEKEVRPRIKQLVDTLFKNVPSGVGSQGRIKLHWTQIDDVLVDGAKWAVDNGYGWERDLERLEEGGRMEGADPEAVSQRAKQRGAPQLGSLGSGNHFLEVQVVDKIFDPEVAKAYGLFEGQVVVMVHTGSRGLGHQVASDYLRIMERAIRKYRIPWPDRELVSVPFQSEEGQRYFSAMKAAANFAWANRQMITHWVRESFQEVFKQDPEGDLGMDIVYDVAHNIGKVEEHEVDGKRVKVIVHRKGATRAFPPGHEAVPRLYRDVGQPVLIPGSMGTASYILAGTEGAMKETFGSTCHGAGRVLSRKAATRQYRGDRIRQELLNRGIYVRAASMRVVAEEAPGAYKNVDNVVKVVSEAGIAKLVARMRPIGVAKG
notes: as for B2
Consider B3, for which the Km in data set [1] (Archease 100 nM) was found to be 1.5 ± 0.3 µM; in data set [3] it was 1.8 ± 0.1 µM; in data set [4] it was 3.4 ± 1.1 µM; in data set [5], 1.9 ± 0.4 µM.

B4: Pyrococcus horikoshii Archease (natural protein)
chain: MLKKWEHYEHTADIGIRGYGDSLEEAFEAVAIALFDVMVNVNKVEKKEVREIEVEAEDLEALLYSFLEELLVIHDIEGLVFRDFEVKIERVNGKYRLRAKAYGEKLDLKKHEPKEEVKAITYHDMKIERLPNGKWMAQLVPDI
B4 yielded an RNA ligation product formed by 5 μM RtcB with Archease titrated in (activation levels off at 100 nM Archease; 92 nM product without Archease), 70°C, 30 min in data set [6] of 316 nM.

A word on the Km: it is the substrate concentration at which the rate is half of its maximum.
